Data on one molecule can be found in US20070134256A1 (US Dept. of Health and Human Services, published 2007).

Assay [1] has as its target T1, dengue type 2 virus (DENV-2), prototype New Guinea C strain, virions (dengue type 2 virus, UniProt P14340 281-775; P14340 115-280). Description: ELISA, virion-coated plate. On the technique in general: In an ELISA, binding on a coated surface is turned into a signal by an enzyme label.
In assay [2] the target is T2, dengue type 3 virus (DENV-3), strain H87, virions (dengue type 3 virus, UniProt P27915 281-773; P27915 115-280). Description: ELISA, virion-coated plate.
Assay [3] deals with T3, dengue type 1 virus (DENV-1), Western Pacific strain, virions (dengue type 1 virus, UniProt P17763 281-775; P17763 115-280). Description: ELISA, virion-coated plate.
Assay [4] has as its target T4, dengue type 4 virus (DENV-4), strain 814669, virions (dengue type 4 virus, UniProt P09866 280-774; P09866 114-279). Description: cell-based or functional assay.
For another assay, the target named is DENV-4 prM glycoprotein (dengue type 4 virus, UniProt P09866 114-279). Briefly: radioimmunoprecipitation of prM expressed alone by recombinant vaccinia virus.
Assay [5] deals with T1, dengue type 2 virus (DENV-2), prototype …. Description: ELISA, virion-coated plate, Fab from ~300 µg/ml.
Assay [6] has as its target T4, dengue type 4 virus (DENV-4), strain …. Description: ELISA, virion-coated plate, Fab from ~300 µg/ml.
Assay [7] has as its target T2, dengue type 3 virus (DENV-3), strain …. Briefly: ELISA, virion-coated plate, Fab from ~300 µg/ml.
Assay [8] addresses T3, dengue type 1 virus (DENV-1), Western …. Description: ELISA, virion-coated plate, Fab from ~300 µg/ml.

B1: chimpanzee Fab 5D9 (Fab, V domains shown)
VH: EVQLLESGPGLVKPSETLSLTCTVSGGSISDFYWSWLRQSPGKGLEWIGVAHSRVSAYYNPSLKSRVTISVDTSKNQLSLRLSAVTAADAALYYCARQGTGTTGVSEDPFDLWGQGTKVIVSL
VL: ELTQSPSSLSASVGDRVTITCRASQGISNRLNWYQQKPGQGPKFLMYDASSLVSGVPSRFSGSGSGTDFTLTISSLQPEDFAVYYCQQFNSYPLTFGGGTKLEIKR
With B1, the binding result (in assay [1]; in [2]; in [3]; with DENV-4 prM glycoprotein) was “no binding” throughout. In addition, in assay [4], the “PRNT50 titer” value is 0.58 µg/mL. In addition, the “ELISA titer of Fab binding” value in assay [5] was < 1 log10 of reciprocal dilution; in assay [6], 3.41 log10 of reciprocal dilution; in assay [7] it was < 1 log10 of reciprocal dilution; in assay [8], < 1 log10 of reciprocal dilution.
